Results published in patent publication US20080292615.
Where a chain is given by its changes, count along the chain named.

How the values were obtained:
[1] = system: T1, Peptide P2 (corneodesmosin fragment with F at position 40 of L20815)
T1 sequence: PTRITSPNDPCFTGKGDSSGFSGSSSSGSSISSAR

[2] = system: T2, Peptide P1 (corneodesmosin fragment with L at position 40 of L20815)
T2 sequence: T1 sequence with F12L

Substance: chymotrypsin
- products of proteolysis after exposure of the peptide to chymotrypsin [1]: peptide P2 with F at position 40 of L20815 gives three small peptides PTRITSPNDPCF (SEQ ID NO 25), TGKGDSSGF (SEQ ID NO 26) and SGSSSSGSSISSAR (SEQ ID NO 24)
- products of proteolysis after exposure of the peptide to chymotrypsin [2]: peptide P1 with L at position 40 of L20815 gives two products of proteolysis: PTRITSPNDPCL40TGKGDSSGF (SEQ ID NO 23) and SGSSSSGSSISSAR (SEQ ID NO 24)
